Target: orphan seven transmembrane domain receptor APJ (human) (UniProt P35414)
Experiment: cell-based or functional assay

UniProt P35414, sequence (P35414 whole entry I109M/F110L, the tested form may be a part): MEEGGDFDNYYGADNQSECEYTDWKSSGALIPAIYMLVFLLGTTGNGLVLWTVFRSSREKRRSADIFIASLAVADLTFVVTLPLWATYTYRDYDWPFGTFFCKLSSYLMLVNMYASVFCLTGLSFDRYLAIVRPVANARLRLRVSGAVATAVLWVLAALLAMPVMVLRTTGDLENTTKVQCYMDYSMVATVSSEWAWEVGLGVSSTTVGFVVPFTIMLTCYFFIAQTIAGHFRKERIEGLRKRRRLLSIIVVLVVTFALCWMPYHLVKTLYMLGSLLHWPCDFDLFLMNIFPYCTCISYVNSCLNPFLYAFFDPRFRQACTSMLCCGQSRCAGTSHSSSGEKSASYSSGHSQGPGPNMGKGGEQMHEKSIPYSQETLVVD

HIV-1 89.6 env protein (from UniProt Q73372 32-853)
cell-cell fusion (luciferase activity), QT6 target cells with CD4 and APJ (% of that observed with CXCR4): > 70
